Data reported in patent US20090047356A1 (published 2009).
One block for each binder: values may come before it.

Experiments:
[1] = target: coagulation factor X, P00742
coagulation factor VIIa [2] = target: T1, coagulation factor VIIa (UniProt P08709 61-466, Gla (gamma-carboxyglutamate) domain mentioned; positions not given); assay: TF-dependent enhancement of factor VIIa enzymatic activity as readout for complex formation
T1 construct: also called FVIIa
T1 sequence (looked up): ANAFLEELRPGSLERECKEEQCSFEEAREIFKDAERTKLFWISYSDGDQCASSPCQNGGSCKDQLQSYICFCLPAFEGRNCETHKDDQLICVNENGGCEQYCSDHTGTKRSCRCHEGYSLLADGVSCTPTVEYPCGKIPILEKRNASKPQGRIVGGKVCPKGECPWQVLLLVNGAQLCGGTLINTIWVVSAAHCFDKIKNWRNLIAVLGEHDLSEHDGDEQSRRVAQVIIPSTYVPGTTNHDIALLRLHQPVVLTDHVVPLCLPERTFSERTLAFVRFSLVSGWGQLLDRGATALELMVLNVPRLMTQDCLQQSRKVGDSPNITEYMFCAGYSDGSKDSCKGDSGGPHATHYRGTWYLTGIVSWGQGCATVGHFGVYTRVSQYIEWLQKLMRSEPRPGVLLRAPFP

coagulation factor VIIa [3] = target: T1, coagulation factor VIIa; assay: apparent Kd; TF-dependent enhancement of factor VIIa enzymatic activity as readout for complex formation
coagulation factor VIIa [4] = target: T1, coagulation factor VIIa; assay: listed in Table 2 of binding constants for TF:VIIa complexes; method for this row not stated
coagulation factor X = target: T2, coagulation factor X (UniProt P00742 41-488, Gla (gamma-carboxyglutamate) domain mentioned; positions not given); assay: SPR (Biacore 3000), Nanodiscs immobilized on NTA chip via His tag of MSP1, factor X flowed over
T2 construct: Substrate of the TF:VIIa complex
T2 sequence (P00742 41-488 limits assumed): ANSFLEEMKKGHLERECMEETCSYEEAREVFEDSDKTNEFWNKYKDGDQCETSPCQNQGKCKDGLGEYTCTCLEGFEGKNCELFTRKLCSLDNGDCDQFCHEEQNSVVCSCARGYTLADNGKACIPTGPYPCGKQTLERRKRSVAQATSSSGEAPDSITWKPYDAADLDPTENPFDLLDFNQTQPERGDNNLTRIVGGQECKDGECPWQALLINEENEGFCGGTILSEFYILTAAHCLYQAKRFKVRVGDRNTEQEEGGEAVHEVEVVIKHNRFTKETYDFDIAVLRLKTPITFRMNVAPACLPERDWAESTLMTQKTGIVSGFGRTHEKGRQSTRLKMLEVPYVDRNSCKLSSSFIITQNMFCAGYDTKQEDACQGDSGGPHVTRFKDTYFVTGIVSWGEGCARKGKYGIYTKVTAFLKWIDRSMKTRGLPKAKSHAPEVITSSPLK

Chain of coagulation factor X, P00742 (P00742 whole entry, looked up): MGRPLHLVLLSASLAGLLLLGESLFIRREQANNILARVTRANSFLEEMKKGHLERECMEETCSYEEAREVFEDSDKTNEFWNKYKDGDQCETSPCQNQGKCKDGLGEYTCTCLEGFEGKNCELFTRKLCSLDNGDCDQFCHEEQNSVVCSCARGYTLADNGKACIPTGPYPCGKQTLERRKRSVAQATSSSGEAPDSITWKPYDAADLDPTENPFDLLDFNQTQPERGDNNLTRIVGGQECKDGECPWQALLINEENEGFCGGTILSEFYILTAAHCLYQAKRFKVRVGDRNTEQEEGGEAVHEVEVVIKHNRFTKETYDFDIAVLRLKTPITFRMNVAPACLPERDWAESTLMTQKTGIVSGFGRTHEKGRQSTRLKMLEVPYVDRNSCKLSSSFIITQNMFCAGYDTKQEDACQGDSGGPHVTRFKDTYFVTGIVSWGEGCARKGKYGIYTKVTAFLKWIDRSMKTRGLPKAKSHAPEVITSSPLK

B1: rTF:VIIa complex on PCPS vesicles (TF-liposomes, 20% PS, 80% PC) (protein)
chain 1: AEDQVDPRLIDGKSGTTNTVAAYNLTWKSTNFKTILEWEPKPVNQVYTVQISTKSGDWKSKCFYTTDTECDLTDEIVKDVKQTYLARVFSYPAGNVESTGSAGEPLYENSPEFTPYLETNLGQPTIQSFEQVGTKVNVTVEDERTLVRRNNTFLSLRDVFGKDLIYTLYYWKSSSSGKKTAKTNTNEFLIDVDKGENYCFSVQAVIPSRTVNRKSTDSPVECMGQEKGEFREIFYIIGAVVFVVIILVIILAISLHK
chain 2: ANAFLEELRPGSLERECKEEQCSFEEAREIFKDAERTKLFWISYSDGDQCASSPCQNGGSCKDQLQSYICFCLPAFEGRNCETHKDDQLICVNENGGCEQYCSDHTGTKRSCRCHEGYSLLADGVSCTPTVEYPCGKIPILEKRNASKPQGRIVGGKVCPKGECPWQVLLLVNGAQLCGGTLINTIWVVSAAHCFDKIKNWRNLIAVLGEHDLSEHDGDEQSRRVAQVIIPSTYVPGTTNHDIALLRLHQPVVLTDHVVPLCLPERTFSERTLAFVRFSLVSGWGQLLDRGATALELMVLNVPRLMTQDCLQQSRKVGDSPNITEYMFCAGYSDGSKDSCKGDSGGPHATHYRGTWYLTGIVSWGQGCATVGHFGVYTRVSQYIEWLQKLMRSEPRPGVLLRAPFP
- Km (factor X activation by TF:VIIa) [1]: 20.2 nM
- Km, app (factor X activation by rTF:VIIa) [1]: 20.2 nM

B2: rTF:VIIa complex on rTF-PCPS-nanoscale discs (TF-Nanodiscs 20% PS, 80% PC) (protein)
chain 1: AEDQVDPRLIDGKSGTTNTVAAYNLTWKSTNFKTILEWEPKPVNQVYTVQISTKSGDWKSKCFYTTDTECDLTDEIVKDVKQTYLARVFSYPAGNVESTGSAGEPLYENSPEFTPYLETNLGQPTIQSFEQVGTKVNVTVEDERTLVRRNNTFLSLRDVFGKDLIYTLYYWKSSSSGKKTAKTNTNEFLIDVDKGENYCFSVQAVIPSRTVNRKSTDSPVECMGQEKGEFREIFYIIGAVVFVVIILVIILAISLHK
chain 2: ANAFLEELRPGSLERECKEEQCSFEEAREIFKDAERTKLFWISYSDGDQCASSPCQNGGSCKDQLQSYICFCLPAFEGRNCETHKDDQLICVNENGGCEQYCSDHTGTKRSCRCHEGYSLLADGVSCTPTVEYPCGKIPILEKRNASKPQGRIVGGKVCPKGECPWQVLLLVNGAQLCGGTLINTIWVVSAAHCFDKIKNWRNLIAVLGEHDLSEHDGDEQSRRVAQVIIPSTYVPGTTNHDIALLRLHQPVVLTDHVVPLCLPERTFSERTLAFVRFSLVSGWGQLLDRGATALELMVLNVPRLMTQDCLQQSRKVGDSPNITEYMFCAGYSDGSKDSCKGDSGGPHATHYRGTWYLTGIVSWGQGCATVGHFGVYTRVSQYIEWLQKLMRSEPRPGVLLRAPFP
chain 3: MGHHHHHHIEGRLKLLDNWDSVTSTFSKLREQLGPVTQEFWDNLEKETEGLRQEMSKDLEEVKAKVQPYLDDFQKKWQEEMELYRQKVEPLRAELQEGARQKLHELQEKLSPLGEEMRDRARAHVDALRTHLAPYSDELRQRLAARLEALKENGGARLAEYHAKATEHLSTLSEKAKPALEDLRQGLLPVLESFKVSFLSALEEYTKKLNTQ
- Km (factor X activation by TF:VIIa) [1]: 68.6 nM
- Km, app (factor X activation by rTF:VIIa) [1]: 68.6 nM

B3: TF:VIIa complex on TF-Nanodiscs 10% PS, 90% PC (protein)
chain 1: AEDQVDPRLIDGKSGTTNTVAAYNLTWKSTNFKTILEWEPKPVNQVYTVQISTKSGDWKSKCFYTTDTECDLTDEIVKDVKQTYLARVFSYPAGNVESTGSAGEPLYENSPEFTPYLETNLGQPTIQSFEQVGTKVNVTVEDERTLVRRNNTFLSLRDVFGKDLIYTLYYWKSSSSGKKTAKTNTNEFLIDVDKGENYCFSVQAVIPSRTVNRKSTDSPVECMGQEKGEFREIFYIIGAVVFVVIILVIILAISLHK
chain 2: ANAFLEELRPGSLERECKEEQCSFEEAREIFKDAERTKLFWISYSDGDQCASSPCQNGGSCKDQLQSYICFCLPAFEGRNCETHKDDQLICVNENGGCEQYCSDHTGTKRSCRCHEGYSLLADGVSCTPTVEYPCGKIPILEKRNASKPQGRIVGGKVCPKGECPWQVLLLVNGAQLCGGTLINTIWVVSAAHCFDKIKNWRNLIAVLGEHDLSEHDGDEQSRRVAQVIIPSTYVPGTTNHDIALLRLHQPVVLTDHVVPLCLPERTFSERTLAFVRFSLVSGWGQLLDRGATALELMVLNVPRLMTQDCLQQSRKVGDSPNITEYMFCAGYSDGSKDSCKGDSGGPHATHYRGTWYLTGIVSWGQGCATVGHFGVYTRVSQYIEWLQKLMRSEPRPGVLLRAPFP
chain 3: MGHHHHHHIEGRLKLLDNWDSVTSTFSKLREQLGPVTQEFWDNLEKETEGLRQEMSKDLEEVKAKVQPYLDDFQKKWQEEMELYRQKVEPLRAELQEGARQKLHELQEKLSPLGEEMRDRARAHVDALRTHLAPYSDELRQRLAARLEALKENGGARLAEYHAKATEHLSTLSEKAKPALEDLRQGLLPVLESFKVSFLSALEEYTKKLNTQ
- Km (factor X activation by TF:VIIa) [1]: 132 nM

B4: TF:VIIa complex on TF-Nanodiscs 30% PS, 70% PC (protein)
chain 1: AEDQVDPRLIDGKSGTTNTVAAYNLTWKSTNFKTILEWEPKPVNQVYTVQISTKSGDWKSKCFYTTDTECDLTDEIVKDVKQTYLARVFSYPAGNVESTGSAGEPLYENSPEFTPYLETNLGQPTIQSFEQVGTKVNVTVEDERTLVRRNNTFLSLRDVFGKDLIYTLYYWKSSSSGKKTAKTNTNEFLIDVDKGENYCFSVQAVIPSRTVNRKSTDSPVECMGQEKGEFREIFYIIGAVVFVVIILVIILAISLHK
chain 2: ANAFLEELRPGSLERECKEEQCSFEEAREIFKDAERTKLFWISYSDGDQCASSPCQNGGSCKDQLQSYICFCLPAFEGRNCETHKDDQLICVNENGGCEQYCSDHTGTKRSCRCHEGYSLLADGVSCTPTVEYPCGKIPILEKRNASKPQGRIVGGKVCPKGECPWQVLLLVNGAQLCGGTLINTIWVVSAAHCFDKIKNWRNLIAVLGEHDLSEHDGDEQSRRVAQVIIPSTYVPGTTNHDIALLRLHQPVVLTDHVVPLCLPERTFSERTLAFVRFSLVSGWGQLLDRGATALELMVLNVPRLMTQDCLQQSRKVGDSPNITEYMFCAGYSDGSKDSCKGDSGGPHATHYRGTWYLTGIVSWGQGCATVGHFGVYTRVSQYIEWLQKLMRSEPRPGVLLRAPFP
chain 3: MGHHHHHHIEGRLKLLDNWDSVTSTFSKLREQLGPVTQEFWDNLEKETEGLRQEMSKDLEEVKAKVQPYLDDFQKKWQEEMELYRQKVEPLRAELQEGARQKLHELQEKLSPLGEEMRDRARAHVDALRTHLAPYSDELRQRLAARLEALKENGGARLAEYHAKATEHLSTLSEKAKPALEDLRQGLLPVLESFKVSFLSALEEYTKKLNTQ
- Km (factor X activation by TF:VIIa) [1]: 45.2 nM

- Kd (coagulation factor VIIa [2]): 0.0264 nM
- Kd (coagulation factor VIIa [3]): 0.0264 nM
B5: rTF in PCPS vesicles (20 mol % PS, 80 mol % PC; PL:rTF 8700:1) (receptor)
chain: AEDQVDPRLIDGKSGTTNTVAAYNLTWKSTNFKTILEWEPKPVNQVYTVQISTKSGDWKSKCFYTTDTECDLTDEIVKDVKQTYLARVFSYPAGNVESTGSAGEPLYENSPEFTPYLETNLGQPTIQSFEQVGTKVNVTVEDERTLVRRNNTFLSLRDVFGKDLIYTLYYWKSSSSGKKTAKTNTNEFLIDVDKGENYCFSVQAVIPSRTVNRKSTDSPVECMGQEKGEFREIFYIIGAVVFVVIILVIILAISLHK
notes: Recombinant truncated human tissue factor from E. coli (not glycosylated), reconstituted into PCPS liposomes by the Bio-Bead method; also called TF-liposomes; rTF in phospholipid vesicles

- Kd (coagulation factor VIIa [4]): ~3 nM
B6: soluble tissue factor (extracellular domain of TF) (receptor, UniProt P13726 33-251, looked up)
chain: SGTTNTVAAYNLTWKSTNFKTILEWEPKPVNQVYTVQISTKSGDWKSKCFYTTDTECDLTDEIVKDVKQTYLARVFSYPAGNVESTGSAGEPLYENSPEFTPYLETNLGQPTIQSFEQVGTKVNVTVEDERTLVRRNNTFLSLRDVFGKDLIYTLYYWKSSSSGKKTAKTNTNEFLIDVDKGENYCFSVQAVIPSRTVNRKSTDSPVECMGQEKGEFRE
notes: extracellular domain; also called sTF

- binding result (coagulation factor X): no binding (tested: 1 µM)
B7: Nanodiscs containing 100% POPC (no TF) (other)
chain: MGHHHHHHIEGRLKLLDNWDSVTSTFSKLREQLGPVTQEFWDNLEKETEGLRQEMSKDLEEVKAKVQPYLDDFQKKWQEEMELYRQKVEPLRAELQEGARQKLHELQEKLSPLGEEMRDRARAHVDALRTHLAPYSDELRQRLAARLEALKENGGARLAEYHAKATEHLSTLSEKAKPALEDLRQGLLPVLESFKVSFLSALEEYTKKLNTQ
notes: Control discs immobilized on an NTA Biacore chip; Their only protein is MSP1; also called POPC Nanodiscs
